B1: MYT1345 (antibody, V domains shown)
VH: QVQLVQSGAEVKKPGASVKVSCKASGYTFTNYDINWVRQAPGQGLEWIGHIYPGDGSTKYNEKFKAKATLTADTSTSTAYMELRSLRSDDTAVYYCASGYEDAMDYWGQGTTVTVSS
VL: DIQMTQSPSSLSASVGDRVTINCKASQDINSYLSWFQQKPGKAPKTLIYRANRLVDGVPSRFSGSGSGQDYTLTISSLQPEDFATYYCLQYDEFPLTFGGGTKVEIK
notes: IgG; vadastuximab VH variant #11 (W50H)
B2: MYT1346 (antibody, V domains shown)
VH: QVQLVQSGAEVKKPGASVKVSCKASGYTFTNYDINWVRQAPGQGLEWIGWHYPGDGSTKYNEKFKAKATLTADTSTSTAYMELRSLRSDDTAVYYCASGYEDAMDYWGQGTTVTVSS
VL: DIQMTQSPSSLSASVGDRVTINCKASQDINSYLSWFQQKPGKAPKTLIYRANRLVDGVPSRFSGSGSGQDYTLTISSLQPEDFATYYCLQYDEFPLTFGGGTKVEIK
notes: IgG; vadastuximab VH variant #12 (I51H)
B3: MYT1347 (antibody, V domains shown)
VH: QVQLVQSGAEVKKPGASVKVSCKASGYTFTNYDINWVRQAPGQGLEWIGWIHPGDGSTKYNEKFKAKATLTADTSTSTAYMELRSLRSDDTAVYYCASGYEDAMDYWGQGTTVTVSS
VL: DIQMTQSPSSLSASVGDRVTINCKASQDINSYLSWFQQKPGKAPKTLIYRANRLVDGVPSRFSGSGSGQDYTLTISSLQPEDFATYYCLQYDEFPLTFGGGTKVEIK
notes: IgG; vadastuximab VH variant #13 (Y52H)
B4: MYT1348 (antibody, V domains shown)
VH: QVQLVQSGAEVKKPGASVKVSCKASGYTFTNYDINWVRQAPGQGLEWIGWIYHGDGSTKYNEKFKAKATLTADTSTSTAYMELRSLRSDDTAVYYCASGYEDAMDYWGQGTTVTVSS
VL: DIQMTQSPSSLSASVGDRVTINCKASQDINSYLSWFQQKPGKAPKTLIYRANRLVDGVPSRFSGSGSGQDYTLTISSLQPEDFATYYCLQYDEFPLTFGGGTKVEIK
notes: IgG; vadastuximab VH variant #14 (P53H)
B5: MYT1349 (antibody, V domains shown)
VH: QVQLVQSGAEVKKPGASVKVSCKASGYTFTNYDINWVRQAPGQGLEWIGWIYPHDGSTKYNEKFKAKATLTADTSTSTAYMELRSLRSDDTAVYYCASGYEDAMDYWGQGTTVTVSS
VL: DIQMTQSPSSLSASVGDRVTINCKASQDINSYLSWFQQKPGKAPKTLIYRANRLVDGVPSRFSGSGSGQDYTLTISSLQPEDFATYYCLQYDEFPLTFGGGTKVEIK
notes: IgG; vadastuximab VH variant #15 (G54H)
B6: MYT1350 (antibody, V domains shown)
VH: QVQLVQSGAEVKKPGASVKVSCKASGYTFTNYDINWVRQAPGQGLEWIGWIYPGHGSTKYNEKFKAKATLTADTSTSTAYMELRSLRSDDTAVYYCASGYEDAMDYWGQGTTVTVSS
VL: DIQMTQSPSSLSASVGDRVTINCKASQDINSYLSWFQQKPGKAPKTLIYRANRLVDGVPSRFSGSGSGQDYTLTISSLQPEDFATYYCLQYDEFPLTFGGGTKVEIK
notes: IgG; vadastuximab VH variant #16 (D55H)
B7: MYT1351 (antibody, V domains shown)
VH: QVQLVQSGAEVKKPGASVKVSCKASGYTFTNYDINWVRQAPGQGLEWIGWIYPGDHSTKYNEKFKAKATLTADTSTSTAYMELRSLRSDDTAVYYCASGYEDAMDYWGQGTTVTVSS
VL: DIQMTQSPSSLSASVGDRVTINCKASQDINSYLSWFQQKPGKAPKTLIYRANRLVDGVPSRFSGSGSGQDYTLTISSLQPEDFATYYCLQYDEFPLTFGGGTKVEIK
notes: IgG; vadastuximab VH variant #17 (G56H)
B8: MYT1352 (antibody, V domains shown)
VH: QVQLVQSGAEVKKPGASVKVSCKASGYTFTNYDINWVRQAPGQGLEWIGWIYPGDGHTKYNEKFKAKATLTADTSTSTAYMELRSLRSDDTAVYYCASGYEDAMDYWGQGTTVTVSS
VL: DIQMTQSPSSLSASVGDRVTINCKASQDINSYLSWFQQKPGKAPKTLIYRANRLVDGVPSRFSGSGSGQDYTLTISSLQPEDFATYYCLQYDEFPLTFGGGTKVEIK
notes: IgG; vadastuximab VH variant #18 (S57H)
B9: MYT1353 (antibody, V domains shown)
VH: QVQLVQSGAEVKKPGASVKVSCKASGYTFTNYDINWVRQAPGQGLEWIGWIYPGDGSHKYNEKFKAKATLTADTSTSTAYMELRSLRSDDTAVYYCASGYEDAMDYWGQGTTVTVSS
VL: DIQMTQSPSSLSASVGDRVTINCKASQDINSYLSWFQQKPGKAPKTLIYRANRLVDGVPSRFSGSGSGQDYTLTISSLQPEDFATYYCLQYDEFPLTFGGGTKVEIK
notes: IgG; vadastuximab VH variant #19 (T58H)
B10: MYT1354 (antibody, V domains shown)
VH: QVQLVQSGAEVKKPGASVKVSCKASGYTFTNYDINWVRQAPGQGLEWIGWIYPGDGSTHYNEKFKAKATLTADTSTSTAYMELRSLRSDDTAVYYCASGYEDAMDYWGQGTTVTVSS
VL: DIQMTQSPSSLSASVGDRVTINCKASQDINSYLSWFQQKPGKAPKTLIYRANRLVDGVPSRFSGSGSGQDYTLTISSLQPEDFATYYCLQYDEFPLTFGGGTKVEIK
notes: IgG; vadastuximab VH variant #20 (K59H)
B11: MYT1355 (antibody, V domains shown)
VH: QVQLVQSGAEVKKPGASVKVSCKASGYTFTNYDINWVRQAPGQGLEWIGWIYPGDGSTKHNEKFKAKATLTADTSTSTAYMELRSLRSDDTAVYYCASGYEDAMDYWGQGTTVTVSS
VL: DIQMTQSPSSLSASVGDRVTINCKASQDINSYLSWFQQKPGKAPKTLIYRANRLVDGVPSRFSGSGSGQDYTLTISSLQPEDFATYYCLQYDEFPLTFGGGTKVEIK
notes: IgG; vadastuximab VH variant #21 (Y60H)
B12: MYT1356 (antibody, V domains shown)
VH: QVQLVQSGAEVKKPGASVKVSCKASGYTFTNYDINWVRQAPGQGLEWIGWIYPGDGSTKYHEKFKAKATLTADTSTSTAYMELRSLRSDDTAVYYCASGYEDAMDYWGQGTTVTVSS
VL: DIQMTQSPSSLSASVGDRVTINCKASQDINSYLSWFQQKPGKAPKTLIYRANRLVDGVPSRFSGSGSGQDYTLTISSLQPEDFATYYCLQYDEFPLTFGGGTKVEIK
notes: IgG; vadastuximab VH variant #22 (N61H)
B13: MYT1357 (antibody, V domains shown)
VH: QVQLVQSGAEVKKPGASVKVSCKASGYTFTNYDINWVRQAPGQGLEWIGWIYPGDGSTKYNHKFKAKATLTADTSTSTAYMELRSLRSDDTAVYYCASGYEDAMDYWGQGTTVTVSS
VL: DIQMTQSPSSLSASVGDRVTINCKASQDINSYLSWFQQKPGKAPKTLIYRANRLVDGVPSRFSGSGSGQDYTLTISSLQPEDFATYYCLQYDEFPLTFGGGTKVEIK
notes: IgG; vadastuximab VH variant #23 (E62H)
B14: MYT1358 (antibody, V domains shown)
VH: QVQLVQSGAEVKKPGASVKVSCKASGYTFTNYDINWVRQAPGQGLEWIGWIYPGDGSTKYNEHFKAKATLTADTSTSTAYMELRSLRSDDTAVYYCASGYEDAMDYWGQGTTVTVSS
VL: DIQMTQSPSSLSASVGDRVTINCKASQDINSYLSWFQQKPGKAPKTLIYRANRLVDGVPSRFSGSGSGQDYTLTISSLQPEDFATYYCLQYDEFPLTFGGGTKVEIK
notes: IgG; vadastuximab VH variant #24 (K63H)
B15: MYT1359 (antibody, V domains shown)
VH: QVQLVQSGAEVKKPGASVKVSCKASGYTFTNYDINWVRQAPGQGLEWIGWIYPGDGSTKYNEKHKAKATLTADTSTSTAYMELRSLRSDDTAVYYCASGYEDAMDYWGQGTTVTVSS
VL: DIQMTQSPSSLSASVGDRVTINCKASQDINSYLSWFQQKPGKAPKTLIYRANRLVDGVPSRFSGSGSGQDYTLTISSLQPEDFATYYCLQYDEFPLTFGGGTKVEIK
notes: IgG; vadastuximab VH variant #25 (F64H)
B16: MYT1360 (antibody, V domains shown)
VH: QVQLVQSGAEVKKPGASVKVSCKASGYTFTNYDINWVRQAPGQGLEWIGWIYPGDGSTKYNEKFHAKATLTADTSTSTAYMELRSLRSDDTAVYYCASGYEDAMDYWGQGTTVTVSS
VL: DIQMTQSPSSLSASVGDRVTINCKASQDINSYLSWFQQKPGKAPKTLIYRANRLVDGVPSRFSGSGSGQDYTLTISSLQPEDFATYYCLQYDEFPLTFGGGTKVEIK
notes: IgG; vadastuximab VH variant #26 (K65H)
B17: MYT1361 (antibody, V domains shown)
VH: QVQLVQSGAEVKKPGASVKVSCKASGYTFTNYDINWVRQAPGQGLEWIGWIYPGDGSTKYNEKFKHKATLTADTSTSTAYMELRSLRSDDTAVYYCASGYEDAMDYWGQGTTVTVSS
VL: DIQMTQSPSSLSASVGDRVTINCKASQDINSYLSWFQQKPGKAPKTLIYRANRLVDGVPSRFSGSGSGQDYTLTISSLQPEDFATYYCLQYDEFPLTFGGGTKVEIK
notes: IgG; vadastuximab VH variant #27 (A66H)
B18: MYT1363 (antibody, V domains shown)
VH: QVQLVQSGAEVKKPGASVKVSCKASGYTFTNYDINWVRQAPGQGLEWIGWIYPGDGSTKYNEKFKAKATLTADTSTSTAYMELRSLRSDDTAVYYCAHGYEDAMDYWGQGTTVTVSS
VL: DIQMTQSPSSLSASVGDRVTINCKASQDINSYLSWFQQKPGKAPKTLIYRANRLVDGVPSRFSGSGSGQDYTLTISSLQPEDFATYYCLQYDEFPLTFGGGTKVEIK
notes: IgG; vadastuximab VH variant #29 (S98H)
B19: MYT1365 (antibody, V domains shown)
VH: QVQLVQSGAEVKKPGASVKVSCKASGYTFTNYDINWVRQAPGQGLEWIGWIYPGDGSTKYNEKFKAKATLTADTSTSTAYMELRSLRSDDTAVYYCASGHEDAMDYWGQGTTVTVSS
VL: DIQMTQSPSSLSASVGDRVTINCKASQDINSYLSWFQQKPGKAPKTLIYRANRLVDGVPSRFSGSGSGQDYTLTISSLQPEDFATYYCLQYDEFPLTFGGGTKVEIK
notes: IgG; vadastuximab VH variant #31 (Y100H)
B20: MYT1366 (antibody, V domains shown)
VH: QVQLVQSGAEVKKPGASVKVSCKASGYTFTNYDINWVRQAPGQGLEWIGWIYPGDGSTKYNEKFKAKATLTADTSTSTAYMELRSLRSDDTAVYYCASGYHDAMDYWGQGTTVTVSS
VL: DIQMTQSPSSLSASVGDRVTINCKASQDINSYLSWFQQKPGKAPKTLIYRANRLVDGVPSRFSGSGSGQDYTLTISSLQPEDFATYYCLQYDEFPLTFGGGTKVEIK
notes: IgG; vadastuximab VH variant #32 (E101H)
B21: MYT1370 (antibody, V domains shown)
VH: QVQLVQSGAEVKKPGASVKVSCKASGYTFTNYDINWVRQAPGQGLEWIGWIYPGDGSTKYNEKFKAKATLTADTSTSTAYMELRSLRSDDTAVYYCASGYEDAMHYWGQGTTVTVSS
VL: DIQMTQSPSSLSASVGDRVTINCKASQDINSYLSWFQQKPGKAPKTLIYRANRLVDGVPSRFSGSGSGQDYTLTISSLQPEDFATYYCLQYDEFPLTFGGGTKVEIK
notes: IgG; vadastuximab VH variant #36 (D105H)
B22: MYT1371 (antibody, V domains shown)
VH: QVQLVQSGAEVKKPGASVKVSCKASGYTFTNYDINWVRQAPGQGLEWIGWIYPGDGSTKYNEKFKAKATLTADTSTSTAYMELRSLRSDDTAVYYCASGYEDAMDHWGQGTTVTVSS
VL: DIQMTQSPSSLSASVGDRVTINCKASQDINSYLSWFQQKPGKAPKTLIYRANRLVDGVPSRFSGSGSGQDYTLTISSLQPEDFATYYCLQYDEFPLTFGGGTKVEIK
notes: IgG; vadastuximab VH variant #37 (Y106H)

biological target: CD33 (Sino Biological, Cat #12238-H08H) (UniProt P20138 18-259); experiment: BLI, IgG captured on anti-human Fc sensor, 50 nM CD33, pH 7.4 vs pH 5.4
Sequence (P20138 18-259 limits assumed): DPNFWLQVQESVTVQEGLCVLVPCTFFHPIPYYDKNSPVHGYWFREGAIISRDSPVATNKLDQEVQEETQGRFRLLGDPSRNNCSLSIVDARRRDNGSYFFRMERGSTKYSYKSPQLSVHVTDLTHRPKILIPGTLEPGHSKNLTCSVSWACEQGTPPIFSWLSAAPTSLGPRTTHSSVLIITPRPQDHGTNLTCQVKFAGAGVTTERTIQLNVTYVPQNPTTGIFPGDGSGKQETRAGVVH

Binding result, binds:
B1
B2
B3
B4
B5
B6
B7
B8
B9
B10
B11
B12
B13
B14
B15
B16
B17
B18
B19
B20
B21
B22

Reference: US20220324969A1 (MYTHIC THERAPEUTICS, published 2022)
